From patent US6093692A, “Method and compositions for lipidization of hydrophilic molecules” (The University of Southern California, priority 1997, dated 2000)
Like-named read-outs stand apart in the source and are kept apart here.

B1: BBI: a hydrophilic protein which has low uptake into cells and is not orally bioavailable (protein, UniProt P01055 40-110, looked up)
Bowman-Birk type proteinase …: DDESSKPCCDQCACTKSNPPQCRCSDMRLNSCHSACKSCICALSYPAQCFCVDITDFCYEPCKPSEDDKEN
B2: BBIssOleic: the oleic acid conjugated BBI (conjugate, UniProt P01055 40-110, looked up)
Bowman-Birk type proteinase …: B1 Bowman-Birk type proteinase …
modifications: oleyl disulfide conjugate; 125I
notes: the oleic acid conjugated BBI

Key:
C3H 10T1/2 cells = assay: Plating efficiency; format: cell-based
Method: The plating efficiency (PE) of the cells was also studied in conjunction with each of the transformation assays. To determine the PE of the cells in the different treatment groups, cells (200 cells/dish) were seeded into three 60-mm petri dishes per experiment group and treated in the identical manner as the transformation assay cells. The cells in these assays were terminated at 10 days, fixed with 100% methanol, and stained with giemsa; the colonies of 50 cells or more visible under a microscope were then counted. The plating efficiency is defined as the (number of colonies/number of cells seeded)×100%.

[1] = tested on: C3H 10T1/2(clone 8) cells; assay: In vitro transformation assay (MCA-induced); format: cell-based; settings: for Transformed foci / Fraction of dishes containing transformed foci / No. of dishes with transformed foci/No. of dishes: MCA 1 μg/ml 24 hr, conjugates 1.0 μg/ml first three weeks; for Fraction of dishes containing transformed foci / No. of dishes with transformed foci/No. of dishes: scored at six weeks
Method: Transformation assays were carried out using C3H 10T1/2(clone 8) cells according to the published recommendations [Reznikoff, C. A., et al., Cancer. Res., 33:3239-3249 (1973); Reznikoff, C. A., et al., Cancer. Res., 33:3231-3238 (1973)]. Stock cultures of mycoplasma-free cells were maintained by passing 50,000 cells per 75 cm^2 flask every seven days. Using this schedule, the cells were always passed approximately 2 days before reaching confluence. The stock culture was grown in Eagle's basal medium supplemented with 10% FBS, penicillin (100 units), and streptomycin (100 μg) and used for the transformation assays at passages of 9 to 14. The cells were passed by treating the stock cells with trypsin (0.1%) in PBS for 5 min and quenching the trypsin with 5 ml of the medium. This procedure was adapted to minimize spontaneous transformation in the stock cultures and maximize the plating efficiency in the petri dishes. The FBS stock used in the cultures was pre-screened to ensure that the serum was able to support the expression and the growth of the transformed cells.
For the transformation assays, C3H 10T1/2 cells (1000/dish) were seeded into 60 mm petri dishes and allowed to grow in a humidified 5% CO2 atmosphere in Eagle's basal medium, supplemented with 10% FBS, penicillin (100 units), and streptomycin (100 μg), for 24 hr. Subsequently, the cells were initiated by treatment with 25 μl of the 3-methylcholanthrene (MCA) in acetone stock solution ([…]) to a final concentration of 1 μg/ml of MCA (5 μg/5 ml). The cells were allowed to grow in the presence of the carcinogen or solvent for 24 hr, and the medium in each dish was then replaced with fresh medium containing no carcinogen or solvent. The medium in the dishes was replaced twice per week for the first two weeks of the assay, and thereafter once a week for the remainder four weeks of the assay. In the experiments designed to determine the transformation inhibitory activity of the conjugates, the cells were maintained in the medium containing the conjugates (1 μg/ml) for the first three weeks of the assay; thereafter, the cells were maintained in medium containing no added conjugates.
Six weeks after the carcinogen treatment, the cells were inspected under a microscope for adherence to the culture dishes and were washed with PBS and then fixed in 100% methanol. The fixed monolayers were then stained with Giemsa stain. Twenty dishes per group were treated in each experiment. In addition to the test groups, all the transformation assays contained at least three other groups: negative control (not treated with carcinogen or solvent), acetone control (treated with 25 μl of acetone), and positive control [treated with MCA (1 μg/ml) in 25 μl of acetone]. The transformed foci (>3 mm in diameter) in the plates were studied under a microscope and classified according to published guidelines as types I, II, or III [Landolph, J. R., Transfomatin assay of established cell lines: Mechanism and Application (ed. Kakunaga, T., and Yamasaki, H.) IARC Scientific Publications, Lyon, France pp. 185-201 (1985)]. Briefly, type III foci were dense, multilayered, basophilic, areas of cell growth which stained to a deep blue color with Giemsa and had rough crisscrossed edges. Type II foci were also dense, multilayered, areas of cell growth, but were stained to a purple color with Giemsa and had smoother, more defined edges compared to Type III foci. Type I foci were not scored in the assay.
BBI, either as the free protein or in conjugated form to palmitic or oleic acid, was added to the cultures at 1.0 μg/ml for the first three weeks of the transformation assay period starting immediately after the MCA treatment. MCA-treated cells were exposed to 3-methylcholanthrene, dissolved in 25 μl of acetone, at a concentration of 1 μg/ml for 24 hr. Acetone-treated cells were exposed to 25 μl of acetone for 24 hr only. […]

[2] = parameters: species or system CF-1 mice; settings: mouse, in vivo, iv, 3 mg/kg
Method: Female CF-1 mice, […], weighing 20-25 g each, with free access to food and water prior to the experiments, were used for the animal experiments. ^125 I-BBI (3 mg/kg), as native-BBI or as BBIssPal or BBIssOleic conjugate, was administered to the animals via the tail vein. At 0.5, 3, and 24 hr post-injection, 3 animals from each experiment group were sacrificed and their blood (200 μl), the kidneys, the lungs, and the liver were removed, rinsed in ice-cold PBS, and assayed for accumulated radioactivity. The weights of the organs were recorded and used to adjust the concentration of the conjugates in the organs.

Caco-2 cells = format: cell-based, Human
Method: Human colon carcinoma cells (Caco-2) were detached from 25 cm^2 stock culture flasks using a 10 min incubation at 37° C. with 0.5 ml of a trypsin/EDTA solution (0.5% trypsin, 5.3 mM EDTA). The cells were then suspended in 5 ml of Dulbecco's minimum essential medium, supplemented with 15% fetal bovine serum (FBS), L-glutamine (1%), and essential amino acids (1%), and counted using a coulter counter.
Radioiodination of BBI and BBIssPal was carried out using the chloramine-T method [McConahey, P. C. and Dixon, F. J., Meth. Enzymol., 70:221-247 (1980)]. Confluent, 14-day old cell monolayers were washed once with, and then incubated in, serum-free Dulbecco medium at 37° C. for 30 min. Subsequently, the incubation medium was replaced with serum free medium containing ^125 I-BBI (10 μg/ml), either as native-BBI or as BBIssPal or BBIssOleic, and the monolayers were incubated for a further 60 min at 37° C. The monolayers were then washed three times with ice-cold PBS, and then exposed to trypsin (0.5%, EDTA 5.3 mM) for 10 min at 37° C. The detached cells were transferred to tubes, isolated by centrifugation, washed three times using ice-cold PBS, assayed for accumulated radioactivity using a gamma counter, and finally assayed for cell protein using the published method [Lowry, O. H., et al., J. Biol. Chem., 193:265-275 (1951)].
In some experiments the uptake of reduced ^125 I-BBIssPal into cells was determined. ^125 I-BBIssPal was reduced with DTT (50 mM) at 60° C. for 5 min followed by a further 25 min at 37° C. In control experiments, ^125 I-BBIssPal was exposed in medium to the same temperatures without being exposed to DTT.
The uptake of ^125 I-BBIssPal in the presence of BSA (fatty acid free) was determined as follows. ^125 I-BBIssPal was incubated with medium containing 0.1% BSA for 30 min at 37° C. before being added to the cell monolayers. In some uptake experiments, BSA was first mixed with a 3-fold molar excess of palmitic acid, and then incubated with the conjugates prior to the experiments. In the experiments where the uptake of ^125 I-BBIssPal was determined in medium containing FBS, the conjugates was simply added to the medium containing the required amount of FBS.
The cell monolayers were incubated with ^125 I-labeled conjugates at 10 μg/ml for 60 min at 37° C. The results presented are the average of three monolayers ±SEM. The uptake experiments were carried out in Dulbecco medium, in the presence and absence of added FBS.
The cell uptake of ^125 I-BBI, either as the native protein or as BBIssPal was determined before and after reduction with DTT (50 mM) for 5 min at 60° C. and 25 min at 37° C.
The uptake experiments were carried out in Dulbecco medium, in the presence and absence of added fatty acid-free BSA (BSA) or fatty acid-loaded BSA (BSA/FA). The results of studies of the uptake of ^125 I-BBI, either as the native-BBI or in conjugated form to palmitic or oleic acid, in Caco-2 cells in the presence of serum-free medium are presented in FIG. 1. The results are shown as the average ng of BBI internalized ±SEM, n=3. The uptake of ^125 I-BBIssPal into the cells was approximately 100-fold higher than that of ^125 I-BBI. […] The difference between the uptake of ^125 I-BBIssPal and ^125 I-BBIssOleic were significant.

Molecule | Plating Efficiency (C3H 10T1/2 cells; 200 cells/dish, 10 days, treated as in the transformation assay) [%] | Transformed foci [1] | Fraction of dishes containing transformed foci [1] | No. of dishes with transformed foci/No. of dishes [1] | Plating Efficiency (C3H 10T1/2 cells) [%] | Blood levels and removal from circulation [2] | Kidney accumulation [2] | Effect of fatty acid-loaded BSA on uptake (Caco-2 cells) | Reduction of uptake after reduction with DTT (Caco-2 cells) | Reduction of uptake by defatted-BSA (Caco-2 cells) | Retention of anti-transformation activity of BBI ([1]; 1.0 μg/ml) | Blood levels, fold higher than BBI [2] | Kidney clearance, fold lower than native-BBI [2] | Liver accumulation, fold higher than BBI [2] | Lung accumulation/levels, fold higher than BBI [2] | Retention in the liver [2] | Uptake, fold higher than that of BBI (Caco-2 cells)
Cc1ccc2cc3c(ccc4ccccc43)c3c2c1CC3 [MCA, 3-methylcholanthrene, reference compound] | 21 ± 3.0 | 6 out of the 19 dishes scored contained type III foci | 0.32 | 6/19 | – | – | – | – | – | – | – | – | – | – | – | – | –
B1 | – | no transformed foci | 0 | 0/20 | 24 ± 2.0 | rapidly excreted from the body without attaining high blood levels | rapidly accumulated in the kidneys | not affected | did not cause a reduction in the uptake | not affected | – | – | – | – | – | – | –
B2 | – | no transformed foci | 0 | 0/20 | 24 ± 3.5 | higher blood levels than BBI | – | – | – | – | retained the original biological activity of BBI | about 4 fold | about 4 fold | about 4 fold | about 2 fold | significant levels of the conjugate present in the liver even at 24 hr post-injection | about 108 fold
